# Test results reported in the DeepSol protein solubility set.
# Assay: soluble on expression in E. coli; label from the status in PepcDB or PDB records
row,Sequence,soluble on expression in E. coli
1,MSLGRGLYFNQAQKHFQQLLLMEERATIARELHDSLAQVLSYLRIQLTLLKRSIPEDNATAQSIMADFSQALNDAYRQLRELLTTFRLTLQQADLPSALREMLDTLQNQTSAKLTLDCRLPTLALDAQMQVHLLQIIREAVLNAMKHANASEIAVSCVTAPDGNHTVYIRDNGIGIGEPKEPEGHYGLNIMRERAERLGGTLTFSQPSGGGTLVSISFRSAEGEESQLMEGHHHHHH,soluble
2,MAHHHHHHMSSSAEEKEAKKQEELRLAGSDSEGVRAAVKAQRELKKKRDALRKVQKKIRSGGSDAEVAAAIEQEAALLAEIGHLEALRGASSAPSTAHVAAASFTSTPATAAASPGALVTVATNKSSGAKAARSGEPAKEITAEERAASAKRLHDLVQGAMDANRLKCLHVLPRDAVVHPRIAEVAVLMEQMLLVGGSARALALISAFRELSRTTTVLAVPSLNEVNTTAFEKLIQINFDFVRRKREASAGMRHVKDVLVRRFVALRDEVIHPKPNMVDLIKDL,not soluble
3,LFSYKSTMWQFINKVTSDRINILNQYYEKFGIHILPQQVTNYRSAGIIVMDNIYVT,not soluble
4,MNHTEIRVVTGPANYFSHAGSLERLTDFFTPEQLSHAVWVYGERAIAAARPYLPEAFERAGAKHLPFTGHCSERHVAQLAHACNDDRQVVIGVGGGALLDTAKALARRLALPFVAIPTIAATCAAWTPLSVWYNDAGQALQFEIFDDANFLVLVEPRIILQAPDDYLLAGIGDTLAKWYEAVVLAPQPETLPLTVRLGINSACAIRDLLLDSSEQALADKQQRRLTQAFCDVVDAIIAGGGMVGGLGERYTRVAAAHAVHNGLTVLPQTEKFLHGTKVAYGILVQSALLGQDDVLAQLITAYRRFHLPARLSELDVDIHNTAEIDRVIAHTLRPVESIHYLPVTLTPDTLRAAFEKVEFFRI,not soluble
5,RNLSGQSRTVGVEYVSANPTGPLHVGHGRAAAIGDCLARLLEANGWNVKREFYYNDAGVQIENLVRSVQARARGLKPGDALWPTDAYNGEYIADIAKAYLAGDSINMVDTIITSTKNVDDTAAIHHFAVNYLRNEQNHDLAAFNVDFDIYFLESSLYKDGKVEETVQKLINSGHTYEEGGALWLKSTHFGDDKDRVMRKSDGSYTYFVPDIAYHLSKWQRGYERAITELGADHHGSLARVHAGLQALEIGIPPGWPEYVLHQMVTVMRGGEEVKLSKRSGGYVTLRDLIEETSTDATRWFLIARKPDSQLTFDIDLARQKSNDNPVFYVQYAYARVCSLMHQAHE,not soluble
6,MKAARQQAIVDLLINHKSLTTEALATRLNVSKETIRRDLSELQTQGKVLRNHGRAKYIHRENQDSGDPFHIRLKSHYAHKADIAREALAWIEEGMTIALDASSTCWYLARQLPDIPIQVFTNSHPICQELGKRERIALISSGGQLERKYGCYVNPSLISQLKSLDIDLFIFSCEGIDGGGDLWDSNAINADFKSILLRRASQSLLLIDKSKFNRSGEARIGHLDDVTHIVSDAPQSLEHHHHHH,not soluble
7,HSLFPIPRMGDSAAKIVSPQEALPGRKEPLVVAAKHHVNGNRTVEPFPEGTQMAVFGMGCFWGAERKFWTLKGVYSTQVGFAGGYTPNPTYKEVCSGKTGHAEVVRVVFQPEHISFEELLKVFWENHDPTQGMRQGNDHGSQYRSAIYPTSAEHVGAALKSKEDYQKVLSEHGFGLITTDIREGQTFYYAEDYHQQYLSKDPDGYCGLGGTGVSCPL,soluble
8,MNYSLKQLKVFVTVAQEKSFSRAGERIGLSQSAVSHSVKELENHTGVRLLDRTTREVVLTDAGQQLALRLERLLDELNSTLRDTGRMGQQLSGKVRVAASQTISAHLIPQCIAESHRRYPDIQFVLHDRPQQWVMESIRQGDVDFGIVIDPGPVGDLQCEAILSEPFFLLCHRDSALAVEDYVPWQALQGAKLVLQDYASGSRPLIDAALARNGIQANIVQEIGHPATLFPMVAAGIGISILPALALPLPEGSPLVVKRITPVVERQLMLVRRKNRSLSTAAEALWDVVRDQGNALMAGREGDPLYQI,soluble
9,MGSDKIHHHHHHMKDLLTRRFVLNSKEVREGDVFVAVKGKRFDGHDFIDEALRNGAYAIIAERKTVNSDRIFLVESSVDTLAKLAREKLGNFSGTVVGVTGSSGKTTTKEILYNLLKNKRSVFKTPGNMNTEYGLPLSILNDYKGEEILVLEMAASRPGDIAHLCKIAPPDVAVLLNVGSAHLEFFGTRERIMETKMEIIKHSKENAIAVTLFDDPDLRKEVPRYRNTLFFGKEGGDSVLKDWWYYEGSTIAEFEAFDSLFTVKLSGYWNGGQLLNIAASLCVMRTLGETVDIFDLASLKTVPGRFNVREKKGVLIVDDTYNASPEAFQTSIEALLRFPGKKFAVVGAMKELGERSKEFHEELGERLNVLDGVYVFLSEPEAEWIKSKKIILKSDDPEKIAKDLATRVKKGDVVLFKASRAVRIERVLEM,not soluble
10,MGSDKIHHHHHHMKRNTAQLKEKLIQTGVEEIKKNGLDQLSLRTIAKNCGVTHGTPYRHFKSKEDYLRVVLTRLSTFLNQEIAQGIDQKVSARDQLAQMGFNLITFTKRYPYFFEALFIKFPFKYMKITQETIVLDSDLPGFDKFKRIVFDLRKEESFTNSEAETLFHFWSFISGLAVLANSPIGRDLDNQAIHTTINHMLDIYIKGEQT,not soluble
11,GMIKKEGPGWRIIFDSSRDNFSTLIGGETWAIELDKSEWKILVEVVMELCDQYKLVKEQLMGDEDITLELERRPWLAILNGDQYGWNLRLILSASGLFNRGAEVYWPRHVTNNVVNAMRSMWDSDYL,soluble
12,MYKILEKKEIAMRNTWYKVYAPHVAKKVQPGQFVIVRAFPNGERIPLTPVMWDREEGWIVLIVFTRGKTTMRMAVELKEGDSLLNVAGPLGTPVPMEKFGKILAIGAYTGIVEVYPIAKAWQEIGNDVTTLHVTFEPMVILKEELEKAVTRHIVEPVPLNPNQDFLANMKNVSQRLKEKVRELLESEDWDLVFMVGPVGDQKQVFEVVKEYGVPMKVDLHPIMVDGTGMCGACRVTVGGEVKFACVDGPEFDAYQVDWDELIHRVGFYAKLEKLALEKYMEELKAKGVILEHHHHHH,not soluble
13,MDRLGSFSNDPSDKPPCRGCSSYLMEPYIKCAECGPPPFFLCLQCFTRGFEYKKHQSDHTYEIMTSDFPVLDPSWTAQEEMALLEAVMDCGFGNWQDVANQMCTKTKEECEKHYMKYFINNPLFASTLLNLKQAEEAKTADTAIPFHSTDDPPRPTFDSLLSRDMAGYMPARADFIEEFDNYAEWDLRDIDFVEDDSDILHALKMAVVDIYHSRLKERQRRKKIIRDHGLINLRKFQLMERRYPKEVQDLYETMRRFARIVGPVEHDKFIESHACRWFLSLEQYLCVYIYINRRDNGVFYVKFYK,soluble
14,GPGSMPPKSAVKKVDSAAATGKRKKLSFAESTVKAAAAAIQTTHVNVPVRAAAKHAPLAAAPRKKGQNAKKTTATTSSAARQRAATDLKRSGIVKAKRAEEEVAAPPVPSDEENSRDDEDDMLNGGAAVDSDTDDLSDMADRTPSDDELGAGKQASSSASRQRDSNGTVEPYRAVRLSFLPPEFQEPQLYKFLNQFGATVLNCFCVRSKRTHRSRGIAYVEFDKESAIPLVVEECNGMVLGGKAVRARAVTMRRRMPSRQMVDRRRALAYAYKTRGAPLKQHDVRRKGPVGLLIKAVRTEKNNNNYLKSLGIDFQTDFFQSQLATLPPVLLKKKRSRSKKSEKGTVATAGMAKAVVKTTDIATVASKSSPKRATRKAPATKTK,soluble
15,ASNFTQFVLVDNGGTGDVTVAPSNFANGVAEWISSNSRSQAYKVTCSVRQSSAQNRKYTIKVEVPKVATQTVGGVELPVAAWRSYLNMELTIPIFATNSDCELIVKAMQGLLKDGNPIPSAIAANSGIYANFTQFVLVDNGGTGDVTVAPSNFANGVAEWISSNSRSQAYKVTCSVRQSSAQNRKYTIKVEVPKVATQTVGGVELPVAAWRSYLNMELTIPIFATNSDCELIVKAMQGLLKDGNPIPSAIAANSGIY,soluble
16,MGSDKIHHHHHHMEQNAEKRSIVGDDNSTVKRQDTSPSKGIAHIKPEYIVPLKQNENQKVAIYDEEMSSDRMTNEFAGGTNKKNKNGRGKKRGQNKNRDNRQVKEQNVLCPRLIHGDISKCSFGDNCRFVHDINLYLSTKKPEVESNIFPSCPVFNSLGFCPMGFKCRFLSSHLNKEDNILISKKEIDPDAQTIWSVKGEVNHISPERKLDLIKRRFPFTKSNEILEIIDSFQQECRDSMKPEEEVESTPQLKKQDPDVEQPVAPQVEQRNKELSEHRMKQREVYLKYKDTRYFAQEKKPLDLYHKKIVSPLTTVGNLPYRRLMRKLGADVTYSEMALAVPLIQGTNSEWALPKAHTSEFPGFGVQVACSKAWQAAKAAEALANSVSEISEINLNSGCPIDLLYRQGSGSALLDNPARMIRCLNAMNYVSKDIPITVKIRTGTKEGHPIAEGLVKRLVNETDVAAITLHGRSRQQRYTKSADWDYVSQVADTLRSAEADFIETEQGKEGRDSKNRIQFVGNGDVNNFEDWYRYLNGNENIDSVMVARGALIKPWIFEEVESQQYLDKTSTERLDILRDYAQFSMEHWGTDEYGISQCRRFFCEFMSFFHRYVPWVFVKDTL,not soluble
17,MSEIKLNYHKTHFLTSAPNIRSIPEDTGIEIAFAGRSNAGKSTALNALTNQKNLARTSKTPGRTQLINLFEVEPNCKLVDLPGYGYAAVPEQMKIQWQKSLGEYLQKRECLAGLVVLMDIRHPLKDLDQQMIEWAVSANLPVLLLLTKADKLSQSARSKQVKMVREAILPFQGDIQVEAFSAQNKIGIDKLAVKLDFWFSPLFAE,not soluble
18,SDRAMMNAFKEITTMADRINLPRNIVDRTNNLFKQVYEQKSLKGRANDAIASACLYIACRQEGVPRTFKEICAVSRISKKEIGRCFKLILKALETSVDLITTGDFMSRFCSNLCLPKQVQMAATHIARKAVELDLVPGRSPISVAAAAIYMASQASAEKRTQKEIGDIAGVADVTIRQSYRLIYPRAPDLFPTDFKFDTPVDKLPQL,soluble
19,VAGPIAVGCYPALGPTILPSMLYAFTAEYPRASVEFREDTQNRLRTQLEGGELDVAIVYDLDLSPEWQTVPLMTREPMVVLGAEHPLAGVDGPVRLADLAEHPMVLLDAPPSTNHAMDVCREAGFAPRVAYRTANFETARAFVGRGLGWTLLLQRPRVDVTYEGLPVVVKPIAEPKPASVAVVVAWHQEATLSRVARAFIRFVTA,soluble
20,GSMIKLFSLKQQKKEEEKGSSKKASAAQLRIQKDINELNLPKTCDISFSDPDDLLNFKLVICPDEGFYKSGKFVFSFKVGQGYPHDPPKVKCETMVYHPNIDLEGNVALNILREDWKPVLTINSIIYGLQYLFLEPNPEDPLNKEAAEVLQNNRRLFEQNVQRSMRGGYIGSTYFERCLK,soluble
21,MKAFEFLYEDFQRGLTVVLDKGLPPKFVEDYLKVCGDYIDFVKFGWGTSAVIDRDVVKEKINYYKDWGIKVYPGGTLFEYAYSKGKFDEFLNECEKLGFEAVEISDGSSDISLEERNNAIKRAKDNGFMVLTEVGKKMPDKDKQLTIDDRIKLINFDLDAGADYVIIEGRESGKGKGLFDKEGKVKENELDVLAKNVDINKVIFEAPQKSQQVAFILKFGSSVNLANIAFDEVISLETLRRGLRGDTFGKV,soluble
22,MSKLYFRYGAMNSGKSTHLMQVAHNYEERGMEVIIIKPSTDKKGGDKVVSRLGVERVVDILIDNDENIIETIEDRLEKGRKIDCIIVDEVQFLKAHHIDELFEIAVGKGIPVICYGLRTDFQMNGFEGSERLLLLAHSIEEMKTICRCGRKAILNGRMINGKFTFEGEQVAIDLVDNVEYQSLCGQCYFKYKYGKDSDNLEHHHHHH,soluble
